{
  "source": "patent US20200385479A1",
  "about": "(LYVGEN BIOPHARMA, published 2020)",
  "key": {"[1]": {"molecular_target": "T1, CD137 antigen (Octet antigen binding assay) (UniProt Q07011 24-186, limits assumed)", "T1 construct": "also called 4-1BB; TNFRSF9", "experiment": "BLI, Octet Red 96, antibody on anti-human Fc (AHC) biosensors, 1:1 model", "protocol": "The chimeric antibodies were tested in an antigen binding assay on Octet Red 96 to estimate binding kinetics. Antibodies were loaded onto anti-human Fc (AHC) biosensors. Loaded sensors were dipped into a serial dilution of each […] (300 nM, 1:3 down, 7 points) in assay buffer (PBS with 0.1% BSA, 0.02% Tween-20 (pH 7.2))."}, "[2]": {"molecular_target": "T2, human CD137-His tag protein", "T2 construct": "It differs from the cell-surface CD137 and the Octet antigen; also called Sino Biological Inc. Cat #10377-H08H-100; not shown: C-terminal His tag of the vendor's product (Sino Biological Cat #10377-H08H-100)", "T2 sequence (chain, as listed by the source limits assumed)": "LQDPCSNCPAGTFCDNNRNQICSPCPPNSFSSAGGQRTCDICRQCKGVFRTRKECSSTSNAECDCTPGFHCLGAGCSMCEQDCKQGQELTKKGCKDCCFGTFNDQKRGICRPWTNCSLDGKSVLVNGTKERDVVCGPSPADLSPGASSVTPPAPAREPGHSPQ", "experiment": "ELISA, plate coated with human CD137-His at 1 ug/ml, anti-human IgG-HRP, A450", "protocol": "CD137 protein (human CD137-His tag protein (Sino Biological Inc. Cat #10377-H08H-100) or rhesus monkey CD137-His (Sino Biological Inc. Cat #90305-K08H-100)) was diluted in PBS to 1 ug/ml and used to coat an ELISA plate (Corning, Cat #9018, high binding) at a concentration of 50 ul/well. The plate was incubated overnight at 4° C. The plate was then decanted and washed with PBS-T, and 200 ul/well assay diluent (1×PBS/1% BSA/0.05% Tween-20/0.05% proclin 300) was added. After a 3 hour incubation at room temperature, the plate was washed with PBS-T three times. The testing antibodies were diluted in assay diluent to 0, 0.000003, 0.00003, 0.0003, 0.003, 0.03, and 0.3 ug/ml or approximately 0, 0.00002, 0.0002, 0.002, 0.02, 0.2 and 2 nM and then added to the plate (50 ul/well). The plate was incubated for one hour at 37° C. and then washed three times with PBS-T. Anti-human IgG-HRP conjugate (Bethyl Cat #A80-319P) at a 1:10,000 dilution was added to the plate (100 ul/well). The plate was incubated for 0.5 hour at 37° C., followed by washing with PBS-T three times. The TMB substrate solution was added (100 ul/well). The color was allowed to develop for 8 minutes before it was stopped with 100 ul/well 2N H₂SO₄. Absorbance at 450 nm was determined with an ELISA reader."}},
  "data": [
    {"binder": "LYV372 (23D2-IgG4) (antibody, V domains shown, Chimeric antibody, human IgG4 S228P / human kappa; also called 23D2 in human IgG4S; 23D2b in human Kappa) VH: QVQLQQSGAELVRPGSSVKISCKASGYAFSIYWMNWVKQRPGQGLEWIGQIYPGDGYTNYNGKFKGKATLTADKSSSTAYMQLSSLTSEDSAVYFCARGQLGLDGYWGQGTTLTVSS VL: QIVLTQSPTIMSASPGEKVTMTCSASSSVSYIYWYQQKPGSSPRLLIYDTSNLASGVPVRFSGSGSGTSYSLTISRMEAEDAATYYCQQWNIYPYTFGGGTKLEIKR", "values": [
      {"measurement": "Kd", "setting": "[1]", "value": 5.8, "unit": "nM"},
      {"measurement": "koff", "setting": "[1]", "value": 0.0016, "unit": "s⁻¹"},
      {"measurement": "kon", "setting": "[1]", "value": 280000, "unit": "M⁻¹ s⁻¹"}
    ]},
    {"binder": "LYV375 (22F2-IgG4) (antibody, V domains shown, Chimeric antibody, human IgG4 S228P / human kappa; also called 22F2 in human IgG4SP / human Kappa) VH: EVKLVESGAELVRPGSSVKISCKASGYAFSLYWMNWVKQRPGQGLEWIGQIYPGDGYTNYNGKFKGKATLTADKSSSTAYMQLSSLTSEDSAVYFCARGQLGLDGYWGQGTTLTVSS VL: QIVLTQSPAIMSASPGEKVTMTCSASSSVSYIYWYQQKPGSSPRLLIYDTSNLASGVPVRFSGSGSGTSYSLTISRMEAEDAATYYCQQWNIYPYTFGGGTKLEIKR", "values": [
      {"measurement": "Kd", "setting": "[1]", "value": 8.2, "unit": "nM"},
      {"measurement": "koff", "setting": "[1]", "value": 0.0023, "unit": "s⁻¹"},
      {"measurement": "kon", "setting": "[1]", "value": 280000, "unit": "M⁻¹ s⁻¹"},
      {"measurement": "EC50 (read off the curve)", "setting": "[2]", "value": "0.01 to 0.02", "unit": "nM"}
    ]},
    {"binder": "LYV390 (30C11-IgG4) (antibody, V domains shown, Chimeric antibody, human IgG4 S228P / human kappa; also called 30C11 in hG4SP / human kappa) VH: QIQLVQSGPELKKPGESVKISCKASGYTFTDYAMHWVKQAPGKALKWMGLINTYTGKPTYVDDLKGRFVFSLEASASTAKLQISNLKNEDTAIYFCARYYHDGTYYGWFANWGQGTLVTVSS VL: DTVLTQSPALAVSPGERVTVSCGATESVSTALNWYQQKPGQQPRLLIYGASNLESGVPARFSGSGSGTDFTLSIDPVEADDTATYFCQQTWNDPLTFGSGTKLEIKR", "values": [
      {"measurement": "Kd", "setting": "[1]", "value": 5.3, "unit": "nM"},
      {"measurement": "koff", "setting": "[1]", "value": 0.0014, "unit": "s⁻¹"},
      {"measurement": "kon", "setting": "[1]", "value": 260000, "unit": "M⁻¹ s⁻¹"},
      {"measurement": "EC50 (read off the curve)", "setting": "[2]", "value": "~0.04", "unit": "nM"}
    ]},
    {"binder": "LYV402 (26B3-IgG4) (antibody, V domains shown, Chimeric antibody, human IgG4 S228P / human kappa; also called 26B3b in hG4SP / human kappa) VH: EVKLLESGGGLVQPGGSLKLSCAASGFDFSRYWMSWVRQAPGKGLEWIGEINPDSNPINYTPSLKDKFIISRDNAKNTLYLQMSKVRSEDTALYYCARDGSSSRYFDVWGAGTTVTVSS VL: DIVMTQSPATLSVTPGDRVSLSCRASQSISDYLHWYQQKSHESPRLLIKYVSQSISGIPSRFSGSGSGSDFTLSINSVEPEDVGVYYCQNGHSFPPTFGGGTKLEIKR", "values": [
      {"measurement": "Kd", "setting": "[1]", "value": 2.1, "unit": "nM"},
      {"measurement": "koff", "setting": "[1]", "value": 0.00034, "unit": "s⁻¹"},
      {"measurement": "kon", "setting": "[1]", "value": 160000, "unit": "M⁻¹ s⁻¹"},
      {"measurement": "EC50 (read off the curve)", "setting": "[2]", "value": "~0.005", "unit": "nM"}
    ]},
    {"binder": "LYV370 (20A12-IgG4) (antibody, V domains shown, Chimeric antibody: hybridoma variable domains on human IgG4 constant region with hinge S228P (EU numbering) and human kappa constant region; S228P is already in the full chain entry; also called 20A12 in human IgG4SP / human kappa) VH: QIQLVQSGPELKKPGETVKISCKASGYTFTTYGMSWVKQAPGKGLKWMGWINTYSGVPTYADDFKGRFAFSLETSASTAYLQINNLKNEDMAIYFCARGYGSPDYWGQGTTLTVSS VL: QIVLTQSPAIMSASPGEKVTMTCSASSSVSYMNWYQQKSGTSPKRWIFDTSKLASGVPARFSGSGSGTSYSLTISSMEAEDAATYYCQQWSGNPPISTFGSGTKLEIKR", "values": [
      {"measurement": "Kd", "setting": "[1]", "value": 5.7, "unit": "nM"},
      {"measurement": "koff", "setting": "[1]", "value": 0.001, "unit": "s⁻¹"},
      {"measurement": "kon", "setting": "[1]", "value": 180000, "unit": "M⁻¹ s⁻¹"},
      {"measurement": "binding result", "setting": "[2]", "value": "binds"}
    ]},
    {"binder": "LYV371 (11E10-IgG4) (antibody, V domains shown, Chimeric antibody, human IgG4 S228P / human kappa; also called 11E10 in human IgG4SP / human Kappa) VH: QVQLQQSGAELVRPGASVTLSCKASGYTFAGFEMHWIKQTPVHGLGWIGAIDPKTGGTDYNQKFKDKALLTADKSSNTAYMELRSLTSEDSAVYYCTRDLGYFDVWGTGTTVTVSS VL: DIQMTQTTSSLSASLGDRVTISCRASQDIRSNLNWYQQKPDGTVKLLIYYTSRLHSGVPSRFSGSGSGTDYSLTISNLEQEDIATYFCQQSEKLPRTFGGGTKLEIRR", "values": [
      {"measurement": "Kd", "setting": "[1]", "value": 3.8, "unit": "nM"},
      {"measurement": "koff", "setting": "[1]", "value": 0.0011, "unit": "s⁻¹"},
      {"measurement": "kon", "setting": "[1]", "value": 280000, "unit": "M⁻¹ s⁻¹"}
    ]}
  ]
}
